Experimental data taken from patent US20260001928A1 (CORTERIA PHARMACEUTICALS, priority 2022, published 2026).
*1 amine or outer side, *2 acyl side, *3 side chain or, on linkers, in order; H or OH if unused. Where no end group is shown, it is not given here. Side-chain parts run from the residue outwards. [ ]: non-standard residue; d: D form. The star is where a group is joined. C20 diacid = O=C(O)CCCCCCCCCCCCCCCCCCC(=O)*; γGlu = O=C(O)[C@H](CCC(=O)[*:2])N[*:1]; NMeI = CC[C@H](C)[C@H](NC)C(=O)O; AEEA = NCCOCCOCC(=O)O; Aib = CC(C)(N)C(=O)O

B1: peptide of SEQ ID NO: 234 (peptide)
peptide: [NMeI]VLSLD[dV]PIKLK([AEEA-γGlu-C20 diacid])KILLEQEKQK[Aib]QREQAETN[Aib]QILAQV-NH2
modifications: N-terminus assumed
SMILES: CC[C@H](C)[C@H](NC)C(=O)N[C@H](C(=O)N[C@@H](CC(C)C)C(=O)N[C@@H](CO)C(=O)N[C@@H](CC(C)C)C(=O)N[C@@H](CC(=O)O)C(=O)N[C@@H](C(=O)N1CCC[C@H]1C(=O)N[C@H](C(=O)N[C@@H](CCCCN)C(=O)N[C@@H](CC(C)C)C(=O)N[C@@H](CCCCNC(=O)COCCOCCNC(=O)CC[C@H](NC(=O)CCCCCCCCCCCCCCCCCCC(=O)O)C(=O)O)C(=O)N[C@@H](CCCCN)C(=O)N[C@H](C(=O)N[C@@H](CC(C)C)C(=O)N[C@@H](CC(C)C)C(=O)N[C@@H](CCC(=O)O)C(=O)N[C@@H](CCC(N)=O)C(=O)N[C@@H](CCC(=O)O)C(=O)N[C@@H](CCCCN)C(=O)N[C@@H](CCC(N)=O)C(=O)N[C@@H](CCCCN)C(=O)NC(C)(C)C(=O)N[C@@H](CCC(N)=O)C(=O)N[C@@H](CCCNC(=N)N)C(=O)N[C@@H](CCC(=O)O)C(=O)N[C@@H](CCC(N)=O)C(=O)N[C@@H](C)C(=O)N[C@@H](CCC(=O)O)C(=O)N[C@H](C(=O)N[C@@H](CC(N)=O)C(=O)NC(C)(C)C(=O)N[C@@H](CCC(N)=O)C(=O)N[C@H](C(=O)N[C@@H](CC(C)C)C(=O)N[C@@H](C)C(=O)N[C@@H](CCC(N)=O)C(=O)N[C@H](C(N)=O)C(C)C)[C@@H](C)CC)[C@@H](C)O)[C@@H](C)CC)[C@@H](C)CC)C(C)C)C(C)C
B2: peptide of SEQ ID NO: 232 (peptide)
peptide: Ac-IVLSLD[dV]PIKLK([AEEA-γGlu-C20 diacid])KILLEQEKQKAQREQAETN[Aib]QILAQV-NH2
SMILES: CC[C@H](C)[C@H](NC(C)=O)C(=O)N[C@H](C(=O)N[C@@H](CC(C)C)C(=O)N[C@@H](CO)C(=O)N[C@@H](CC(C)C)C(=O)N[C@@H](CC(=O)O)C(=O)N[C@@H](C(=O)N1CCC[C@H]1C(=O)N[C@H](C(=O)N[C@@H](CCCCN)C(=O)N[C@@H](CC(C)C)C(=O)N[C@@H](CCCCNC(=O)COCCOCCNC(=O)CC[C@H](NC(=O)CCCCCCCCCCCCCCCCCCC(=O)O)C(=O)O)C(=O)N[C@@H](CCCCN)C(=O)N[C@H](C(=O)N[C@@H](CC(C)C)C(=O)N[C@@H](CC(C)C)C(=O)N[C@@H](CCC(=O)O)C(=O)N[C@@H](CCC(N)=O)C(=O)N[C@@H](CCC(=O)O)C(=O)N[C@@H](CCCCN)C(=O)N[C@@H](CCC(N)=O)C(=O)N[C@@H](CCCCN)C(=O)N[C@@H](C)C(=O)N[C@@H](CCC(N)=O)C(=O)N[C@@H](CCCNC(=N)N)C(=O)N[C@@H](CCC(=O)O)C(=O)N[C@@H](CCC(N)=O)C(=O)N[C@@H](C)C(=O)N[C@@H](CCC(=O)O)C(=O)N[C@H](C(=O)N[C@@H](CC(N)=O)C(=O)NC(C)(C)C(=O)N[C@@H](CCC(N)=O)C(=O)N[C@H](C(=O)N[C@@H](CC(C)C)C(=O)N[C@@H](C)C(=O)N[C@@H](CCC(N)=O)C(=O)N[C@H](C(N)=O)C(C)C)[C@@H](C)CC)[C@@H](C)O)[C@@H](C)CC)[C@@H](C)CC)C(C)C)C(C)C
B3: peptide of SEQ ID NO: 233 (peptide)
peptide: [NMeI]VLSLD[dV]PIKLK([AEEA-γGlu-C20 diacid])KILLEQEKQKEQREQAETN[Aib]QILAQV-NH2
modifications: N-terminus assumed
SMILES: CC[C@H](C)[C@H](NC)C(=O)N[C@H](C(=O)N[C@@H](CC(C)C)C(=O)N[C@@H](CO)C(=O)N[C@@H](CC(C)C)C(=O)N[C@@H](CC(=O)O)C(=O)N[C@@H](C(=O)N1CCC[C@H]1C(=O)N[C@H](C(=O)N[C@@H](CCCCN)C(=O)N[C@@H](CC(C)C)C(=O)N[C@@H](CCCCNC(=O)COCCOCCNC(=O)CC[C@H](NC(=O)CCCCCCCCCCCCCCCCCCC(=O)O)C(=O)O)C(=O)N[C@@H](CCCCN)C(=O)N[C@H](C(=O)N[C@@H](CC(C)C)C(=O)N[C@@H](CC(C)C)C(=O)N[C@@H](CCC(=O)O)C(=O)N[C@@H](CCC(N)=O)C(=O)N[C@@H](CCC(=O)O)C(=O)N[C@@H](CCCCN)C(=O)N[C@@H](CCC(N)=O)C(=O)N[C@@H](CCCCN)C(=O)N[C@@H](CCC(=O)O)C(=O)N[C@@H](CCC(N)=O)C(=O)N[C@@H](CCCNC(=N)N)C(=O)N[C@@H](CCC(=O)O)C(=O)N[C@@H](CCC(N)=O)C(=O)N[C@@H](C)C(=O)N[C@@H](CCC(=O)O)C(=O)N[C@H](C(=O)N[C@@H](CC(N)=O)C(=O)NC(C)(C)C(=O)N[C@@H](CCC(N)=O)C(=O)N[C@H](C(=O)N[C@@H](CC(C)C)C(=O)N[C@@H](C)C(=O)N[C@@H](CCC(N)=O)C(=O)N[C@H](C(N)=O)C(C)C)[C@@H](C)CC)[C@@H](C)O)[C@@H](C)CC)[C@@H](C)CC)C(C)C)C(C)C
B4: peptide of SEQ ID NO: 230 (peptide)
peptide: Ac-IVLSLD[dV]PIKLK([AEEA-γGlu-C20 diacid])KILLEQEKQKKQREQAETN[Aib]QILAQV-NH2
SMILES: CC[C@H](C)[C@H](NC(C)=O)C(=O)N[C@H](C(=O)N[C@@H](CC(C)C)C(=O)N[C@@H](CO)C(=O)N[C@@H](CC(C)C)C(=O)N[C@@H](CC(=O)O)C(=O)N[C@@H](C(=O)N1CCC[C@H]1C(=O)N[C@H](C(=O)N[C@@H](CCCCN)C(=O)N[C@@H](CC(C)C)C(=O)N[C@@H](CCCCNC(=O)COCCOCCNC(=O)CC[C@H](NC(=O)CCCCCCCCCCCCCCCCCCC(=O)O)C(=O)O)C(=O)N[C@@H](CCCCN)C(=O)N[C@H](C(=O)N[C@@H](CC(C)C)C(=O)N[C@@H](CC(C)C)C(=O)N[C@@H](CCC(=O)O)C(=O)N[C@@H](CCC(N)=O)C(=O)N[C@@H](CCC(=O)O)C(=O)N[C@@H](CCCCN)C(=O)N[C@@H](CCC(N)=O)C(=O)N[C@@H](CCCCN)C(=O)N[C@@H](CCCCN)C(=O)N[C@@H](CCC(N)=O)C(=O)N[C@@H](CCCNC(=N)N)C(=O)N[C@@H](CCC(=O)O)C(=O)N[C@@H](CCC(N)=O)C(=O)N[C@@H](C)C(=O)N[C@@H](CCC(=O)O)C(=O)N[C@H](C(=O)N[C@@H](CC(N)=O)C(=O)NC(C)(C)C(=O)N[C@@H](CCC(N)=O)C(=O)N[C@H](C(=O)N[C@@H](CC(C)C)C(=O)N[C@@H](C)C(=O)N[C@@H](CCC(N)=O)C(=O)N[C@H](C(N)=O)C(C)C)[C@@H](C)CC)[C@@H](C)O)[C@@H](C)CC)[C@@H](C)CC)C(C)C)C(C)C
B5: peptide of SEQ ID NO: 231 (peptide)
peptide: Ac-IVLSLD[dV]PIKLK([AEEA-γGlu-C20 diacid])KILLEQEKQKEQREQAETN[Aib]QILAQV-NH2
SMILES: CC[C@H](C)[C@H](NC(C)=O)C(=O)N[C@H](C(=O)N[C@@H](CC(C)C)C(=O)N[C@@H](CO)C(=O)N[C@@H](CC(C)C)C(=O)N[C@@H](CC(=O)O)C(=O)N[C@@H](C(=O)N1CCC[C@H]1C(=O)N[C@H](C(=O)N[C@@H](CCCCN)C(=O)N[C@@H](CC(C)C)C(=O)N[C@@H](CCCCNC(=O)COCCOCCNC(=O)CC[C@H](NC(=O)CCCCCCCCCCCCCCCCCCC(=O)O)C(=O)O)C(=O)N[C@@H](CCCCN)C(=O)N[C@H](C(=O)N[C@@H](CC(C)C)C(=O)N[C@@H](CC(C)C)C(=O)N[C@@H](CCC(=O)O)C(=O)N[C@@H](CCC(N)=O)C(=O)N[C@@H](CCC(=O)O)C(=O)N[C@@H](CCCCN)C(=O)N[C@@H](CCC(N)=O)C(=O)N[C@@H](CCCCN)C(=O)N[C@@H](CCC(=O)O)C(=O)N[C@@H](CCC(N)=O)C(=O)N[C@@H](CCCNC(=N)N)C(=O)N[C@@H](CCC(=O)O)C(=O)N[C@@H](CCC(N)=O)C(=O)N[C@@H](C)C(=O)N[C@@H](CCC(=O)O)C(=O)N[C@H](C(=O)N[C@@H](CC(N)=O)C(=O)NC(C)(C)C(=O)N[C@@H](CCC(N)=O)C(=O)N[C@H](C(=O)N[C@@H](CC(C)C)C(=O)N[C@@H](C)C(=O)N[C@@H](CCC(N)=O)C(=O)N[C@H](C(N)=O)C(C)C)[C@@H](C)CC)[C@@H](C)O)[C@@H](C)CC)[C@@H](C)CC)C(C)C)C(C)C

Columns and labels:
[1] = target: T1, CRF1R (corticotropin-releasing factor receptor 1), on the CRF1R-overexpression CHO-K1 cell line clone 2 (UniProt P34998 24-415, limits assumed); test: cell-based or functional assay
T1 sequence (looked up): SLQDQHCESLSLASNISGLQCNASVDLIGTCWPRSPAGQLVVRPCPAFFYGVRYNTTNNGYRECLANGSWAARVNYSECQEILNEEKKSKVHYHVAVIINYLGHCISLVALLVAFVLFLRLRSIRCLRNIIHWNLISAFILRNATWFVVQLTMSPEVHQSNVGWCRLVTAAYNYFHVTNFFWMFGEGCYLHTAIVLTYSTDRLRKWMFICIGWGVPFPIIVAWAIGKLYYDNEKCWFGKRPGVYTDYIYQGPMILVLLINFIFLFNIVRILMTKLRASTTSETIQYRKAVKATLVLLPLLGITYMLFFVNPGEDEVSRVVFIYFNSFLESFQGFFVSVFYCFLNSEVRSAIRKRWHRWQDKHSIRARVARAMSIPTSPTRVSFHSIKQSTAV

[2] = target: Rat CRF2 a (corticotropin-releasing factor receptor 2), on the A7R5 rat aortic smooth muscle cell line (rat, UniProt P47866 20-411); test: cell-based or functional assay
Chain of Rat CRF2 a (corticotropin-releasing factor receptor 2), on the A7R5 rat aortic smooth muscle cell line (P47866 20-411): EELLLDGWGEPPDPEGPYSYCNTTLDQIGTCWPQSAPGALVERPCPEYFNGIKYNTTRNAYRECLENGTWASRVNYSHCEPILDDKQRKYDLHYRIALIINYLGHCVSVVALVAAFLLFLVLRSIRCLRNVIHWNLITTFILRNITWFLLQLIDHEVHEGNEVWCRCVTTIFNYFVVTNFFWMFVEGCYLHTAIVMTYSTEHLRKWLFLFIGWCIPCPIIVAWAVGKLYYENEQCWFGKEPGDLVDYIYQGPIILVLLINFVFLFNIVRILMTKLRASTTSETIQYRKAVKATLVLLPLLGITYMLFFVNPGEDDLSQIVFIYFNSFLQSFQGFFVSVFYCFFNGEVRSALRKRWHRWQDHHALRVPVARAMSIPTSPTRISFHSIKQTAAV

Row | Binder | EC50 [nM] (cAMP, CRF1R-overexpression CHO-K1 cells) [1] | Emax (% I) (cAMP, 100% = Sauvagine at 100 nM) [1] | EC50 [nM] 0% HSA (cAMP, A7R5 rat aortic smooth muscle cells) [2] [nM]
1 | B1 | > 250 | 15 | 0.05
2 | B2 | > 250 | 13 | 0.4
3 | B3 | > 250 | 8 | 0.37
4 | B4 | > 250 | 30 | 0.11
5 | B5 | > 250 | 10 | 1.32
